Experimental data from the Immune Epitope Database (IEDB).

Experiments:
HLA-B*35:01 = assay: IEDB peptide-MHC binding, purified MHC/competitive/radioactivity; filed as Kd, often an IC50 or EC50 that approximates it; ≥ and ≤ were set here for values at or beyond the usual limits of such assays
HLA-B*51:01 = assay: as above
HLA-B*54:01 = assay: as above
HLA-B*53:01 = assay: as above
HLA-B*07:02 [1] = assay: as above
HLA-B*45:06 = assay: IEDB peptide-MHC binding, purified MHC/competitive/fluorescence; filed as Kd, often an IC50 or EC50 that approximates it; ≥ and ≤ were set here for values at or beyond the usual limits of such assays
HLA-B*83:01 = assay: as above
HLA-B*15:42 = assay: as above
HLA-B*44:02 = assay: IEDB peptide-MHC binding, purified MHC/direct/fluorescence; filed as Kd, often an IC50 or EC50 that approximates it; ≥ and ≤ were set here for values at or beyond the usual limits of such assays
HLA-B*18:01 = assay: as above
HLA-B*08:01 [2] = assay: IEDB peptide-MHC binding, purified MHC/competitive/radioactivity; filed as Kd, often an IC50 or EC50 that approximates it; ≥ and ≤ were set here for values at or beyond the usual limits of such assays; settings: source organism: Hepatitis C virus (isolate H)
HLA-A*24:03 = assay: IEDB peptide-MHC binding, purified MHC/direct/fluorescence; filed as Kd, often an IC50 or EC50 that approximates it; ≥ and ≤ were set here for values at or beyond the usual limits of such assays
HLA-B*15:01 = assay: as above; settings: source organism: Campylobacter jejuni RM1221
HLA-A*26:01 = assay: as above; settings: source organism: Campylobacter jejuni RM1221
HLA-A*31:01 = assay: as above; settings: source organism: Campylobacter jejuni RM1221
HLA-B*08:01 [3] = assay: as above; settings: source organism: Campylobacter jejuni RM1221
HLA-A*11:01 = assay: as above; settings: source organism: Campylobacter jejuni RM1221
HLA-A*03:01 = assay: as above; settings: source organism: Campylobacter jejuni RM1221
HLA-A*02:01 = assay: as above; settings: source organism: Campylobacter jejuni RM1221
HLA-B*27:05 = assay: as above; settings: source organism: Campylobacter jejuni RM1221
HLA-A*01:01 = assay: as above; settings: source organism: Campylobacter jejuni
HLA-B*40:01 = assay: as above
HLA-B*58:01 = assay: as above; settings: source organism: Campylobacter jejuni RM1221
HLA-B*07:02 [4] = assay: as above; settings: source organism: Campylobacter jejuni RM1221
HLA-A*69:01 = assay: as above; settings: source organism: Campylobacter jejuni RM1221
[5] = source organism: SARS coronavirus Tor2
[6] = source organism: Human herpesvirus 4 strain B95-8
[7] = source organism: Vaccinia virus WR
[8] = source organism: Mammarenavirus whitewaterense
[9] = source organism: Hepatitis C virus (isolate H)
[10] = source organism: Triticum aestivum
[11] = source organism: Campylobacter jejuni RM1221
[12] = source organism: Influenza A virus (A/SW/MN/12883/00(H1N2))
[13] = source organism: Dengue virus 1 Singapore/S275/1990
[14] = source organism: Mycobacterium tuberculosis H37Rv
[15] = source organism: Mycobacterium tuberculosis C
[16] = source organism: human gammaherpesvirus 4
[17] = source organism: Mammarenavirus tacaribeense

In the case of APVSAMVRM, the Kd (HLA-B*35:01; [5]) is reported as 0.433 µM, the Kd (HLA-B*51:01; [5]) is reported as 1.77 µM and the Kd (HLA-B*54:01; [5]) is reported as no less than 23.2 µM. The Kd (HLA-B*53:01; [5]) was 0.749 µM and the Kd (HLA-B*07:02 [1]; [5]) was 0.158 µM.
Work on CSDAFYPFY yielded a Kd (HLA-B*45:06; [6]) of no less than 5 µM, a Kd (HLA-B*83:01; [6]) of no less than 5 µM and a Kd (HLA-B*15:42; [6]) of no less than 5 µM.
In the case of DPEKFNARM, the Kd (HLA-B*35:01; [7]) is reported as 0.948 µM, the Kd (HLA-B*51:01; [7]) is reported as 17 µM and the Kd (HLA-B*54:01; [7]) is reported as no less than 78.1 µM. The Kd (HLA-B*53:01; [7]) was 1.3 µM and the Kd (HLA-B*07:02 [1]; [7]) was no less than 66.7 µM.
With FPLKLRGTAV the Kd (HLA-B*35:01; [5]) was 4.53 µM, the Kd (HLA-B*51:01; [5]) was 0.659 µM and the Kd (HLA-B*54:01; [5]) was 0.00106 µM. It also gave a Kd (HLA-B*53:01; [5]) of 4.48 µM and a Kd (HLA-B*07:02 [1]; [5]) of 0.135 µM.
With GEDGCWYGM the Kd (HLA-B*44:02; source organism: Dengue virus) was no less than 20 µM and the Kd (HLA-B*18:01; source organism: Dengue virus) was 1.26 µM.
With GPFEASWAI the Kd (HLA-B*35:01; [8]) was 0.801 µM, the Kd (HLA-B*51:01; [8]) was 1 µM and the Kd (HLA-B*54:01; [8]) was 0.311 µM. The Kd (HLA-B*53:01; [8]) was 0.254 µM and the Kd (HLA-B*07:02 [1]; [8]) was 0.411 µM.
In the case of HPALVFDIT, the Kd (HLA-B*35:01; [9]) is reported as 0.00567 µM, the Kd (HLA-B*08:01 [2]) is reported as 0.974 µM and the Kd (HLA-B*51:01; [9]) is reported as 7.09 µM. The Kd (HLA-B*54:01; [9]) was 0.000285 µM and the Kd (HLA-B*53:01; [9]) was 0.65 µM.
IPCMDVVL was tested, and the Kd (HLA-B*35:01; [10]) was 16.2 µM, the Kd (HLA-B*51:01; [10]) was 1.3 µM and the Kd (HLA-B*54:01; [10]) was no less than 87.7 µM. The Kd (HLA-B*53:01; [10]) was no less than 41.1 µM and the Kd (HLA-B*07:02 [1]; [10]) was no less than 40.4 µM.
Sequence IPKGIMMNV has a Kd (HLA-B*35:01; [5]) of no less than 20.9 µM, a Kd (HLA-B*51:01; [5]) of 8.27 µM and a Kd (HLA-B*54:01; [5]) of 0.0147 µM. The Kd (HLA-B*53:01; [5]) was no less than 23.8 µM and the Kd (HLA-B*07:02 [1]; [5]) was 0.128 µM.
KHIKPIVEF was tested, and the Kd (HLA-A*24:03; source organism: Entamoeba histolytica) was 0.0705 µM.
KNDAVYIGY gave a Kd (HLA-B*15:01) of no less than 20 µM, a Kd (HLA-A*26:01) of no less than 20 µM and a Kd (HLA-A*31:01) of no less than 20 µM. It also gave a Kd (HLA-B*08:01 [3]) of no less than 20 µM, a Kd (HLA-A*11:01) of no less than 20 µM and a Kd (HLA-B*44:02; [11]) of no less than 20 µM. It also gave a Kd (HLA-A*03:01) of no less than 20 µM, a Kd (HLA-A*02:01) of no less than 20 µM and a Kd (HLA-A*24:03; [11]) of no less than 20 µM. For the same sequence, the Kd (HLA-B*27:05) was no less than 20 µM, the Kd (HLA-A*01:01) was 19.2 µM and the Kd (HLA-B*40:01; [11]) was no less than 20 µM. It also gave a Kd (HLA-B*58:01) of no less than 20 µM, a Kd (HLA-B*07:02 [4]) of no less than 20 µM and a Kd (HLA-A*69:01) of no less than 20 µM.
In the case of KPTESACSSL, the Kd (HLA-B*35:01; [5]) is reported as 16.6 µM, the Kd (HLA-B*51:01; [5]) is reported as 4.23 µM and the Kd (HLA-B*54:01; [5]) is reported as no less than 50.4 µM. For the same sequence, the Kd (HLA-B*53:01; [5]) was 8.38 µM and the Kd (HLA-B*07:02 [1]; [5]) was 0.0584 µM.
With LPYPDPSRIL the Kd (HLA-B*35:01; [5]) was no less than 27 µM, the Kd (HLA-B*51:01; [5]) was 1 µM and the Kd (HLA-B*54:01; [5]) was 9.53 µM. It also gave a Kd (HLA-B*53:01; [5]) of 8.29 µM and a Kd (HLA-B*07:02 [1]; [5]) of 3.79 µM.
Work on MPEKRNVVV yielded a Kd (HLA-B*35:01; [7]) of 0.412 µM, a Kd (HLA-B*51:01; [7]) of 0.127 µM and a Kd (HLA-B*54:01; [7]) of 0.033 µM. The Kd (HLA-B*53:01; [7]) was 0.4 µM and the Kd (HLA-B*07:02 [1]; [7]) was 0.0018 µM.
MPYNILDRII showed a Kd (HLA-B*35:01; [7]) of 1.64 µM, a Kd (HLA-B*51:01; [7]) of 0.124 µM and a Kd (HLA-B*54:01; [7]) of 0.0084 µM. The Kd (HLA-B*53:01; [7]) was 0.0455 µM and the Kd (HLA-B*07:02 [1]; [7]) was 0.265 µM.
With NEVGARILT the Kd (HLA-B*44:02; [12]) was no less than 20 µM, the Kd (HLA-B*40:01; [12]) was no less than 20 µM and the Kd (HLA-B*18:01; [12]) was 0.658 µM.
With PYIDAADQF the Kd (HLA-A*24:03; source organism: Mycobacterium tuberculosis) was 0.0912 µM.
For QPFPPQQPY, the Kd (HLA-B*35:01; [10]) was 0.304 µM, the Kd (HLA-B*51:01; [10]) was no less than 77.5 µM and the Kd (HLA-B*54:01; [10]) was no less than 78.1 µM. For the same sequence, the Kd (HLA-B*53:01; [10]) was no less than 78.2 µM and the Kd (HLA-B*07:02 [1]; [10]) was no less than 77.5 µM.
For SEHTGKEIV, the Kd (HLA-B*44:02; [13]) was no less than 20 µM and the Kd (HLA-B*18:01; [13]) was 3.09 µM.
Sequence SPAAYVLPL has a Kd (HLA-B*45:06; [14]) of no less than 5 µM, a Kd (HLA-B*83:01; [14]) of 0.156 µM and a Kd (HLA-B*15:42; [14]) of no less than 5 µM.
Sequence SVMAIFYLR has a Kd (HLA-B*45:06; [15]) of no less than 5 µM, a Kd (HLA-B*83:01; [15]) of no less than 5 µM and a Kd (HLA-B*15:42; [15]) of no less than 5 µM.
For TPNNLNKIQL, the Kd (HLA-B*35:01; [7]) was 4.43 µM, the Kd (HLA-B*51:01; [7]) was no less than 69.6 µM and the Kd (HLA-B*54:01; [7]) was 13.5 µM. For the same sequence, the Kd (HLA-B*53:01; [7]) was 2.93 µM and the Kd (HLA-B*07:02 [1]; [7]) was 0.0649 µM.
Sequence VPRPRFSAL has a Kd (HLA-B*45:06; [16]) of no less than 20 µM, a Kd (HLA-B*83:01; [16]) of 0.106 µM and a Kd (HLA-B*15:42; [16]) of no less than 5 µM.
VPYCNYTRFW gave a Kd (HLA-B*35:01; [17]) of 3.4 µM, a Kd (HLA-B*51:01; [17]) of 1.02 µM and a Kd (HLA-B*54:01; [17]) of no less than 22.5 µM. It also gave a Kd (HLA-B*53:01; [17]) of 0.0159 µM and a Kd (HLA-B*07:02 [1]; [17]) of 3.53 µM.
With YPQPQPQY the Kd (HLA-B*35:01; [10]) was 0.472 µM, the Kd (HLA-B*51:01; [10]) was 19.5 µM and the Kd (HLA-B*54:01; [10]) was no less than 70 µM. For the same sequence, the Kd (HLA-B*53:01; [10]) was 5.39 µM and the Kd (HLA-B*07:02 [1]; [10]) was no less than 87.3 µM.
